Data published in the domain aggregation screens of Martell et al. (2025).

Assay: soluble fraction after stress (log2 fold change); higher = more stays soluble; pooled small domains, quantitative proteomics
Conditions: stress: 50 degC
In short: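 After stress at 50°C, the amount of each protein still soluble was measured. This was done on pooled custom libraries of small protein domains, using high-throughput quantitative proteomics. The figure given is a base-two log fold change and stands for aggregation propensity, with higher values meaning more protein stays in solution.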

Sequence | soluble fraction (log2)
HMFDGYQWLKRDIIRGVYQPEEKLRMSLLTNRYGLGVGPLREALSQLVAEHLVTVVSQKGYRVAPM | -0.112
HMFDKNKPVVVEGENAEVALKKVSKYFNVPTEKLDYTLLGQKSAGLLGIGSKVYQFKVWLKREIP | 0.396
HMFDLENIRLTLARRLNVAAHLRPKYVAGFTLLLKQNFPEQNAEDLLNRLEHNQWLKVNQREIEYSPRLLM | -1.58
HMFDPAKQMQRIRKYAGMNRKEFSEWLNIPYRTMTDWELGNRTMPVYLLELIVYKVNHEIANA | 0.186
HMFDREKFIKLGQEFARVAFENVNKRATDRALKTAAKHYGLPSADELLARLGSSEIAARDVVAELYPNL | -0.34
HMFDSYDIYDEAGNTVNTVKGKLSWGHLLEIYDRFDNHIGTVQERVLTFLPKFLMYINGQEIGEIR | -0.0596
HMFDVNSMIAANIVAILKKQNRKQIDLAGALQTNKQTISKMLNGSRMINAIELKRIAEFLGVKMEELTKL | -0.635
HMFDVRWEQGYALAAAYAQEYGNLDVPRDYKTADGKKLGRWIQSQEQAYEQKKLSEEQISRLEMIGMQWG | -0.604
HMFEDEPSEREIRISTLLAAFLKQEDGGTAVSRERFLKENSDVAEDLQILLEMADMIQEMAGP | -0.418
HMFEKIDINFADIHQLKGLPLNSEQINSIIEYRNQNGFIENIYDLKNVNGISIDKVHELKSYIFIIDV | -2.42
HMFENPRALLEMMISLGNEQGLINMARDIVSAGEFRRLELAAGGDRRKLARMLIDHLVEVAPRLP | -0.394
HMFEQFEVENLQELQQEWGDKFNHNLEMARRAFMNFATPEAVKVLEETGMGNHPELLKVFARIGEVLAED | -0.536
HMFERINLIGVNGTTKKRSALVRLLDGEIVKIGVGDSLNGGQVVDISPATLTYLKSGKSIMLTLPK | -1.03
HMFGQRLRLARKRAGLSMQALAQRMSPPVTAQAISKYEADRMMPSSAVLVGLGKALGVSLDFLMGGQ | -0.835
HMFHFELNAAKQALEDRKTIDRAKGILMRQRGMSEDDAYKLLRTTAMSQNRKVIDVAQALVTAADLL | -0.0832
HMFINTVELGRAIKRRREELGLSLRDVADVTNVSASTLSRIENGTGKPDADNIARLTGWLDMPIDRVM | -0.0139
HMFIRINQTQNSPRKSVQIVESKRDGHKVRTKILRHVGIAMDDVELQKLKSLAQDIIAKMTVETENASKQ | -0.00422
HMFKINQKVKLIAPLPYLKTSENMPMLRPPDLVAIDEIGEVLSLKSPETVEVRFRRGSFLIDIDKLEKVD | -0.219
HMFKYLLDTNIVIYVIKKRPIEVMGVFNQNANRMAISAITFSELQHGAEKSVRVQENLNAIEEFTTLIDI | 0.181
HMFKYRELLDWAKNRFDDLEVSIAPKALALLVESIGTDLRLLDSEIQKLSMYKPLEMISTNDVEDLVA | -0.357
HMFLTDHEVSKVARKRAHAEYLSSLSWRQRTFGDHGERSKNFEAWYKEHSHLYETEKLYKELYKN | -0.567
HMFLTPLEEARLVIEEIVIPKNIAVDLSPRPSALRKQQHELIAHYQLKSFSVGNERTKRLRILPKVI | -0.114
HMFMLQAKRVPVSELENFKGIVAEDVVSQSRALILPRGSNLSWLSSSAMQNLSTRLALEGVESISIYL | -1.43
HMFMVAGHLSEKNGYFYAVINYNDSLGNRKTKWMSTGLTVKGNKKRAEAILAEKRRTFQPDEPV | -1.69
HMFNDPTMEDALVNLKGITNEVLSYLSSSKIKKLEELAEMSVPELKDIVENISDDEASALIMEARKPWF | -0.113

Sequence | soluble fraction (log2)
HMFNEFEDIPDIISAEGIDPAMREEVAANLKKYYKNPDAMLALAPLEREYYEKLVGILSEKIELKKEN | 0.563
HMFNFPEEVRVQLAKSEQLRNLLIPMSETVRDALSGEELWFGRTIFNTTSKKIESWTNPGVWVE | -1.45
HMFNIIARQEIDEILYEYKIENSEDYKNRDPEELAEIYENIKTVQENHDLSDDDVEELLKSIFSDY | -1.02
HMFNKTKVPNFIDMNYYEEIEGNSEYDKFNFADPITKNDDTKAPGTVIDQTPEKGTRIDEEKTVIQLTIA | -0.102
HMFNRAVSDNEALQVREHFDRDATVMSLAKKYGVSTVTIQRILLGKTYRNVGGPLFDKATLKKRMGN | -0.66
HMFNVKAYEKAVKSYITKRKPLGEALDEEIMDELSVKFGIVDDALEDLFKQIQDAGISIVDKDGNPSPLAL | -0.619
HMFPELEPDEQLIADLLRKTNNLQINIITVRTGLPINRVTALLFQMEMKGVVRPLAGGTYHLLV | -0.108
HMFPELSPEEQLIVEVLSKTNDLQVNLISVKTNIDISRLTSLLFTLEMKGVIKTFAGGMYHLL | -0.538
HMFPSLSPEEQAVVDVLQRNNDLQINMLSVQSGLTISRLTALLFQLEMKGVIKPLAGGMYHLL | 0.0206
HMFPTLSPEEQRIVDQLAKENDLQANVIALRTALTIPQISALLFSLEMKGMVRLYAGGTYHLI | -2.81
HMFQPEQISKLNELETLVLDFIIKSPDKVQKATIRSLATQLHVSTTTIVRMSTKLGFNGWSELKFFLKNQS | -2.15
HMFRDFSETLLRKLQAAGGFLPFTDKTDAEAIAEHFQVSKKTFKRAVGTLYKQRRILIDDEGITLIG | -0.148
HMFRPDYYEILQVDRHASPEVITAAYRQLLSIYNSEQDGNKQMIKLIQEAYGVLGDSQDRWLYDSWLDNN | -0.746
HMFRSNAERAAHLASALPRAEAELAALQARGAATSENIYLRSSYFDALRYTEELRAAKRAQDALQGA | 0.0735
HMFSAASSQISSYVRSVVDKAQTYEQAYEILAKNPLGFKLDALEDELFRIIANAEILGADDDE | -0.887
HMFSNATISGLKAGALVRVYNISGVAVSTLTADAEGKVSVDLNNLPKGVYILSTPSKSFKVLN | -0.54
HMFSWRQHLDHFGFSDEIKKRLADAVFLNDDWNEIDRGVLTKEELLARFIENDPGIEKEIYMVMENIN | -0.509
HMFYPIAHTLTKLNIRSGPGEQYQKLATFENNHDLVVLTQQNEWVQVRGKSDEQVIIGWVHSSFLSPT | -1.09
HMFYQLTENQRRILSSLEQNPRVSAAHLAEEIGISSRKVENNLKKLKEIGLLQRHGSPRKGYWSINQGW | -0.623
HMGAAAQLLHAVVLRVPAEDTMKFVSETPELRRYLGAPLGPTAALVRPGQEQELAAALQAHGILVEFDE | -0.0602
HMGAAITEAEAKQIALDHAGVSESETERMRVKLGRDDGVQEYEVNFYVGNREYDYDINAATGEIRSHDSE | 0.0811
HMGADPTTWPEIDAFVGRVAVTATGLFPSGQVEIDGRRFEARLAFGVAEPGARVVVRRRTDFGLLVEKETR | -0.389
HMGADRLVGMTAIVTATIDPNDTDRKGRVQVEGEVWSALSDGRLIITEGSKVRITEMHGTRVRVEAI | -0.0351
HMGAEWTEMRVWTSTSGSKVTAEASSLTNGQVTLETKSGKRITLSIRKLVEADQKFLEAHFSK | -0.947
HMGAGLLEPEPLKIEIQETQERLQKLQKALERDTETADSKERIKRAIEAHKARISQLQGLIE | 0.0635

Sequence | soluble fraction (log2)
HMGAKVFTVPNLIGKYAIEAGIILKKEGLSEGEVKEENSDKYAAGQIIDQYPAADSPAKENDKINYVVSIG | 0.00836
HMGANSAYMAMRDRIQQRLLAELSPGVTRSDTAEVRRVVERIFNETTAELGLPLSRLERNDIFDLVLADIL | -0.792
HMGAPLAVGDSVRVVVSGPRAFVYTAPNGALSGAVRNGAAFTVLELSPDNTWARIGSGEWIKVEFLATG | 0.0428
HMGATYSQFLDQVDGGNVQKVTFSGDMRSGTNQISYTTRSGQSATITAPMDRDLINILRAKNVEIVQEEP | 0.026
HMGAWQQTGFFRNRENAESLAEVLRQRGFSPVVREDTRPSGTVYYAVLVPDDGTTAARLKDAGIDSYPV | 0.0695
HMGDDYFTILGIERDATTDEIRSAYRRLSKKIHPDAQGSSALFRQVQEAYETLIDPSSRARYVAELNASQG | 0.113
HMGDERDRLLLARGKRIYQELIGSDRENVAAALREFEAVLAVNNRRAIHVMRQRLAELFGVYEEFLNEEFL | -2.77
HMGDEVAVTEILVKVGDTVEADQSLLTVEGDKASMEVPAPFAGVVKAIQVQLGDKVVTGSPIMLFEV | -0.00831
HMGDFNYVMPDFRGLEAHDVSSFLNRNGFLLRPTEHEVSFTQRPGLILMHYPEPGYPFSRSSPITLVVS | -1.03
HMGDGMEVWVNGSPVNLTGKDSFIFVDIFDFIDFDLTASKGRLIVIKVNGEYAEYTRPLHNGDTIEIYWEE | -0.0714
HMGDGRVGVITASIAYEYAKEVFPEGTSFLKLGLTFPLPMDLIRDFASKVEKLYVIEELEPL | -0.215
HMGDHYTALGLSIDATPEEIRSAYFLAARRSHPDANPDAQTTEWFLRVQEAYDILSNPRRRAEYDASLP | -0.554
HMGDKRPIAVGDYVKLEGQDTPGQVLSISGKNATVGFGMLKTTVKLDRLRHTMAKPQTGASAGVR | 0.178
HMGDKVTIPNLIDMKLTDAQNQYKPQGFSIVKNGERESDKEAGTILEQDKAAGTEISGKDIRIFVVVSSGS | -0.00368
HMGDLAAAGNHTLEVMGFPQHPDESYRHFVGNGIPKLIERMLPAGHDKETEQKAYDIFMEYYSAHK | 0.227
HMGDPMAIMQLSSNTTPEYWEAYQKYHIQEYEQSNFIRYVNGISVLDDDFVDKVLITIDQHGRIFSELKS | -2.41
HMGDSEMPVSEVVRLAKLDQISSIEISGTKLTIITNNLETYTSRIEENSTIIEILQRAGVDIGGLEIYPHG | -0.492
HMGDVSGFLRGVLADGPVPAKTVFSEASGAGYSRDQIQRAARKIGVERRKTGMAGGWVWELEP | 0.014
HMGEAYVVPNVKNKTLGEAQLALHNQKLEGLVVDSSYVKGLPDGMILDQNPAGGARVKEGRTIYLTITTS | 0.00953
HMGEDFPYVAYATDSVRLRSKPSSSGDILAVIRQGDAVLITGSDGNYKIVEYEGRKGYVISAFLSQTP | -0.199
HMGEDLTIDQLAAEVDMTVRNIRAHQARGLLPPPTIKGRIGYYGPLHRRRLQQIRAMQEEGLNLAAIAKVV | -0.609
HMGEDPYQMLGLTRQASDEEVRLAWRKLMRENHPDSLASRGVPQEFVKRATEQVAQINAAWDRIKRERG | 0.0386
HMGEELIEIQNLRNKERREAEAILKNLDLVPVIQEQFDDTVPINRVITTDPGPDSTVKKGTTVMIYVSKGP | 0.253
HMGEENLKYPLLTDGSVKTTVLEAIDKDEKWLREELAKQGYDDLSKLFLVDYLGGQLVVTPY | 0.277
HMGEESIAELISNPKLSDAKRTVILDLLSRGLTVDQIKPYIQSDDPYTAEQLQFELYKLFFTQI | -0.228
